Test: yeast display, Sf9 membrane polyspecificity reagent, FACS + sequencing; frameworks hold sequencing errors
Outline: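 Polyreactivity labels are assigned by the sorting gate from which each nanobody was recovered. The gates were low and high (top ~1%), set on anti-HA fluorescence for expression and streptavidin fluorescence for reagent binding. Before sorting, galactose-induced (36–48 hours) yeast display cells were stained for 1 hour at 4 °C with 10% biotinylated, detergent-solubilized Sf9 membrane reagent.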

Row | Sequence | polyreactivity (PSR sort gate)
1 | QVQLVESGGGLDQAGGSLRLSCAASGRIFNKYAMGWYRQAPGKERELVAAITRSGTRTFYADSVKGRFTISRDNAKNTVYLQMNSLKPEDTAVYYCNRDQYPFTKMDYWGQGTQVTVSS | high polyreactivity
2 | QVQLVESGGGLDQAGGSLRLSCAASGRIFRYYTMGWYRQAPGKERELVAAISTSDDSTNYADSVKGRFTISRDNAKNTVYLQMNSLKPEDTAVYYCAADQSRVGSYQDYDYWGQGTQVTVSS | low polyreactivity
3 | QVQLVESGGGLDQAGGSLRLSCAASGRIFSFNAMGWYRQAPGKERELVAAISWSTGSTFYADSVKGRFTISRDNAKNTVYLQMNSLKPEDTAVYYCAREYYYRRGFFLRGYWGQGTQVTVSS | high polyreactivity
4 | QVQLVESGGGLDQAGGSLRLSCAASGRIFSYYAMGWYRQAPGKERELVAVISRRGDNTYYADSVKGRFTISRDNAKKTVYFQMNSLKPEDTAVYYCAARFGYLTFYSSGYYWGQGTQVTVSS | high polyreactivity
5 | QVQLVESGGGLDQAGGSLRLSCAASGRIFVYNAMGWSRQAPGKARELVATITFSSSNTYYADSVKGRFTISRENAKNTVYLQMNSLKPEDTAVYYCYRDYVYARDYGNFDYWGQGTQVTVSS | low polyreactivity
6 | QVQLVESGGGLDQAGGSLRLSCAASGRTFARYDMGWYRQATGKERELVAGINGDGGSTNYADSVKGRFTISRDNSKNTVYLQMNSLKPEDTAVYYCNVDQEDRKLHVSIKQLSDHWGQGTQVTVSS | low polyreactivity
7 | QVQLVESGGGLDQAGGSLRLSCAASGRTFGRYAMGWYRQAPGKERELVAAITRSGSSTYYADSVKGRFTISRDNAKNTVYLQMNSLKPEDTAVYYCAAGPRPRPSDYWGQGTQVTVSS | high polyreactivity
8 | QVQLVESGGGLDQAGGSLRLSCAASGRTFGYNAMGWYRQAPGKERELVAAINWSGASTYYADSVKGRFTISRDNAKNTVYLQMNSLKPEDTAVYYCAARRKRVSFFPEYDYWGQGTQVTVSS | low polyreactivity
9 | QVQLVESGGGLDQAGGSLRLSCAASGRTFGYYTMGWYRQAPWKERELVARINYIGSSTYYADSVKGRFTISRDNAKNTVYLQLNSLKREDTAVYYCNADTARGRSGVRRYYWGQGTQVTVSS | high polyreactivity
10 | QVQLVESGGGLDQAGGSLRLSCAASGRTFYVYGMGWSRQAPGKERELVAAIRSSGGSTYADSVKGRFTISRDNAKKTVYLQMNSLKPEDTAVDYCAADRRYAESGYYWGQGTQVTVSS | high polyreactivity
11 | QVQLVESGGGLDQAGGSLRLSCAASGRTNAPYAMGWYRPAPGKERELVAAISGGGSTNYADSVKGRFTISRDNAKNSVYLQMNSLKPEDTAVYSCAADQYHGVGINFRSDYDYWGQGTQVTVSS | low polyreactivity
12 | QVQLVESGGGLDQAGGSLRLSCAASGRTSKTYAMGWYRQAPGKERELVATIDRSGDGTYYADSVKGRFTISRDNAKNTVYLQMNSLKPEDTAVYYCNAVTSSFYNRDSDYWGQGTQVSVSS | high polyreactivity
13 | QVQLVESGGGLDQAGGSLRLSCAASGRTYYLYAMGWYRQAPGKERELVAAITFNGGSTYYADSVKGRFTISRDNGKNTVYLQMNSLKPEDTAVDYCAGRLSKRSGYYYWGQGTQVTVSS | high polyreactivity
14 | QVQLVESGGGLDQAGGSLRLSCAASGSIFDDYAMGWYRQAPGKERELVAAISWSGGRTYYADSVKGRFTISRDNAKNTVYLQMNSLKPEDTAVYYCAATTGVRSRRYYYWGQGTQVTVSS | low polyreactivity
15 | QVQLVESGGGLDQAGGSLRLSCAASGSIFDRYAKGWYRQAPGTERELVASITWRATSTYYADSVKGRFTISRDNAKNTVYLKMNRLKPEETAVYYCAAAIAFGYRGTVAKYGYWGQGTQVTVSS | low polyreactivity
16 | QVQLVESGGGLDQAGGSLRLSCAASGSIFETYVMGWYRQAPGKERELVAAINSGGSTYYADSVKGRFTISRDNAKNTVYLQMNSLKPEDTAVYYFAADSPYGYYEGDYWGQGTQVTVSS | low polyreactivity
17 | QVQLVESGGGLDQAGGSLRLSCAASGSIFTYNVMGWYRQAPGKERELVAAISWDGDSTYYADSVKGRFTISRDNAMKTVYLQMNSLKAEDTAVYYCAADVHEKFQYDYWGQGNQVTVSS | high polyreactivity
18 | QVQLVESGGGLDQAGGSLRLSCAASGSIFYPYAMGWYRQAPGKERELVASNSSGGSTYYADSVKGRFTISRDNAKNTVYLQMNSLKPEDTAVYYCARQDYKRFYRYRFGNLYDSWGQGTQVTVSS | high polyreactivity
19 | QVQLVESGGGLDQAGGSLRLSCAASGSIIYWYAKGWYRQAPGKERELVADISRGGITNYADSVKGRFTISRDNEKNTVYLQMNSLKPEDTAFYYCAKTHYGVQRLDSWGQGTQVTVSS | low polyreactivity
20 | QVQLVESGGGLDQAGGSLRLSCAASGSISLNAMGWYRQGPGKEREFVAVITWRVGDTYYADSVKGRITISRDNAKNTVYLQLNSRKPEDSAVYYCAADDLYYQGIYRGSEFDYWGQGTQVTVSS | low polyreactivity
21 | QVQLVESGGGLDQAGGSLRLSCAASGSTFLTNAMGGYRQAPGKEMELVAVISLISGPTYYADSVKVRFTISRDNAKNTVYLQMNRLKPEDTAVYYSATDPYWNSPYVKYDYWGQGTQVTVSS | high polyreactivity

Row | Sequence | polyreactivity (PSR sort gate)
22 | QVQLVESGGGLDQAGGSLRLSCAASGSTFRNNAMGCYRQAPGKEREFVAAISRRGGSTYADSVKGRFTISRDNAKITVYLQMNSLKPEDTAVYFCAVRPSRILTGGRMDYWGQGTQVTVSS | high polyreactivity
23 | QVQLVESGGGLDQAGGSLRLSCAASGSTFRSYAMGWYRQAPGKERELVAVISSGDSTYYADSVKGRFTISRDNAKNTVYLQMNSLKQEDTAVYYCAADSYVLGRWYGYWGQGTQVTVSS | low polyreactivity
24 | QVQLVESGGGLDQAGGSLRLSCAASGSTFWVNTMGWYRQAPGKERELVAGITSNGGSTSYADSVKGRFTISRDNAKNSVYLQMNSLKREDTAVYYCNADTYPDYWAYLYDYWGQGTQVTVSS | low polyreactivity
25 | QVQLVESGGGLDQAGGSLRLSCAASGSTFYAYTMGWYRQAPGKERELVARISGRGGSTYYADSVKGRFTISRDNAKNTVFLQMYSLKPEDTAVYFCASRVYGSYRGIQYGYWGQGTQETVSS | high polyreactivity
26 | QVQLVESGGGLDQAGGSLRLSCAASGSTFYLYAMGWYRQAPGKERELVAAISSGGRTNYADSVKGRFTISRDNAKNTVYLQMNSLKPEDTAVYYCAARIQWPTWSLYYYWGQGTQVTVSS | high polyreactivity
27 | QVQLVESGGGLDQAGGSLRLSCAASGSTFYYYAMGWYRQAPGKERELVATISSGSSTNYADSVKGRFTISRDNAKNTVYLQMNCLKPEDTAVYYCAADRWYITLSIDATISYDYWGQGTQVTVSS | low polyreactivity
28 | QVQLVESGGGLDQAGGSLRLSCAASGSTIHRNAMGWYRQAPGKERELVAAITSGGSTNYADSVKGRFTISRDNAKNTVYLQMNSLKPEDTAVYYCDKDYRHYNRGWYDYWGQGTQVTVSS | low polyreactivity
29 | QVQLVESGGGLDQAGGSLRLSCAASGSTLFPYAMGWYRQAPGKERELVAAISSRGGRTNYADSVKGRFTISRDNAKNTDYLQLYSLKPEDTAVYYCAAGDDYWGQGTEVTVSS | high polyreactivity
30 | QVQLVESGGGLDQAGGSLRLSCAASGSTLSGNAMGWYRHAPGKERELVAAITSSGGRTYYADSVKGRFTISRDNAKNTVYLQMNSLKPEDTAVYYCAARSRLGRYTYDYCGQGTQVTVSS | high polyreactivity
31 | QVQLVESGGGLDQAGGSLRLSCAASGYTFVGNAMGWYRQAPGKERELVAAISRSGGRTYYADSVKGRFTISRDNAKYTVYLQMNSLKPEDTAVYYCAKQPGSGPYYWGQGTQVTVSS | high polyreactivity
32 | QVQLVESGGGLDQAGGSLRLSCAASVNIFIYNTMGWYRQAPGKERELVAAITSDDSTKYADSVKGRFTISRDNAKNPVYLQMNTLKPEDTAVYYCAKRYYHPYWIDYDYWGQGTHVTVSS | low polyreactivity
33 | QVQLVESGGGLDQAGGSLRLSCADSGITFSYYAMRWYRQAPGKERELVAAISSGGSKNYADSVKGRFTISRDNGKNTVYFQMNSLKPEDTEVYYCAATQQFWWAYRYDYWGQGTQVTVSS | low polyreactivity
34 | QVQLVESGGGLDQAGGSLRLSCADSGSTFGLYAMGWYRQAPGKETELVAVISWRGGSTYYADSVKGRFTISRDNAKITVYFQMNSLKPEDTAVYYCAAYCLYPYVRYDYWGLGTQVTVSS | low polyreactivity
35 | QVQLVESGGGLDQAGGSLRLSSAASGSIVDSNAMGWYRQAPGKASEMVASITSSGGSTYYADSVKGRFTISRDNAKNTVYLQMNSVKPEDTAVYYCAPKQAQSRYRLWSTSGYWGQGTQVTVSS | high polyreactivity
36 | QVQLVESGGGLDQAGGSLRLSSAAYGRIFRRYAMGWYRQSHGKERELVAAITSGGGSTYYADSVKGRFTISRDNAKNTVYLQMNSLKPEETAVYYCNKSSLEFVKGKYGYWGQGTQVTVSS | low polyreactivity
37 | QVQLVESGGGLDQAGGSLRLTCAASGFNFSYYVMGWYRQAPGKERELVAAITKSGGSTYYADSVKGRFTIARDNAKNTVYLQMYSLKPEDTAVYFLAAVRGYRCYDYWGQGTQVTVSS | high polyreactivity
38 | QVQLVESGGGLDQAGGSLRLTCAASGGTFVSNAMRWSRQAPGKERELVAAISSSTGSTYYADSVKGRFTISRDNAKKTVYLQMISLKPEDTAVYYCAADSWWDYDSWGQGPQVTVSS | low polyreactivity
39 | QVQLVESGGGLDQAGGSLRLTCAASGITFTQYAMGWYRQAPGKEREFVAGITFSGSSTYYADSVKGRFTISRDNAKNTVYLQMNSLKPEDTAVYYCAAESWYKYIYGYPRLFDYWGQATQVTVSS | low polyreactivity
40 | QVQLVESGGGLDQARGSLRLSCAASGLTFHRYAMGWYRQANGKERELVAAINYSGGRTYYADSVKGRFTISRDNAKNTVYLQMNSLKPEDTAVYYCNAVRYQKIFDYWGQGTQVTVSS | high polyreactivity
41 | QVQLVESGGGLDQARGSLRLSCAASGRTFVLNAMGWYRQAPGKERELVAAITLGGGSTYADSVKGRFTISRANAKNTVYLQMNSLKPEDTAVYYCAADFHYPYFEYWGQGTQVTVSS | low polyreactivity

Reference: the nanobody polyreactivity screen of Harvey et al. (2022)
